How the values were obtained:
[1] = tested on: C. auris adhesion to HeLa cells; assay: Adhesion assay, fungal adhesion to HeLa cell monolayer; format: cell-based; settings: 12 μg/ml, HeLa:yeast 1:1, 1 hour
Method: In order to investigate the protective effect of hmAb 2G8 H5/K1 in preventing fungal adhesion to human cells commonly known to be preferred targets, C. auris cells were left adhering to a monolayer of HeLa cells together with the humanised mAb H5/K1, to reproduce an infection-medication scenario. 1.0×10^4 cervical cancer cells HeLa were suspended in RPMI+*10% FBS (pH 7) and plated in a 96-well plate for 2 hours at 37° C.+5% CO2. After incubation, the cells not attached at the bottom of the wells were washed away and 1.0×10^4 cells of C. auris suspended in RPMI+MOPS (0.165 M, pH 7) were added to reach a 1:1 ratio HeLa:yeast cells. Together with the yeast, 12 μg/ml of the humanised mAb 2G8 were added. PBS was used in the control sample. The plate was left at 37° C. for 1 hour and after washing 5 times, HeLa cells were lysed with PBS 0.1% Triton X100 (15 min. RT). The suspension was plated in PDA plate and incubated at 37° C. for 48 hours. This experiment has been repeated two times in triplicate.

C. auris = assay: Growth inhibition assay (CFU count); format: cell-based; settings: 18 h at 37° C.
Method: The growth inhibitory activity of humanised mAb 2G8 H5/K1 was tested as reported in W. Magliani et al, Nature Biotech. 1997; 15:155-158 with some modifications. In brief, 150-250 cells of C. auris in 10 μl of PBS were incubated with 100 μl of humanised mAb 2G8 at 250, 100 and 50 μg/ml (each concentration was tested in triplicate) and incubated for 18 h at 37° C. The inhibition was evaluated by seeding the yeast on PDA. The plates were incubated at 37° C. for 48 h and the inhibition was calculated by count of the CFU. The assay was performed in triplicate.

[2] = tested on: β-1,3-glucans on the surface of C. auris; assay: Recognition of C. auris by flow cytometry and confocal microscopy; format: cell-based; settings: 12 μg/ml mAb
Method: From an overnight inoculum, C. auris cells were washed with RPMI+MOPS (0.165 M, pH 7) and 3.0×10^6 cells were pelleted, suspended in Phosphate buffered saline (PBS) containing 3% (w/v) BSA (Bovine Serum Albumin—Sigma Aldrich) and put in contact with 12 μg/ml of the humanised mAb 2G8 for 1 hour at room temperature. The cells were then washed with PBS and marked with anti-human IgG FITC antibody 1:150 in PBS+3% BSA for 1 hour. The cells were then washed and fixed with paraformaldehyde 4% in PBS 1 hour at 4° C. After fixing and washing with PBS, the pellet was suspended in 400 μl of PBS and splitted in two tubes. The samples were analysed using flow cytometry and confocal microscopy, respectively.
A Flow cytometer (FACScanto II, BDBioscences, Erembodegem, Belgium), equipped with three lasers (488 nm, 633 nm, 405 nm) was employed to collect and quantitate FITC fluorescence from different samples. Both autofluorescence and fluorescence derived from a specific binding of FITC-conjugated secondary Ab were quantitated by Flow Cytometry. […] The histogram CTRL evaluates the background from aspecific binding of FITC-conjugated secondary Ab, enabling to fix the threshold defining the positivity for the humanised mAb H5/K1 (treated). 97% of events express the antigen (treated panel). The expression was precisely quantitated by MFI values: the fold of increase is 164, when compared to control (FIG. 12B). Light grey events in FIG. 12A histograms represent cells outside the scatter area mainly occupied by the cells: i.e. aggregates or increase in cell size (as during senescence).

[3] = ELISA assay on laminarin-coated plates; format: binding
Method: The activity of the purified antibody was then tested by ELISA assay. 96-well plates were coated with 50 μg/ml Laminarin (Sigma-Aldrich, L9634) in 0.05 M carbonate buffer pH 9.6 overnight at 4° C. Nonspecific interactions were blocked with 100 μL/well blocking solution, 3% (w/v) BSA in PBS-Tween 20 (8 g/L NaCl, 0.2 g/L KH2PO4, 2.9 g/L Na2HPO4·12 H2O, 0.2 g/L KCI, 0.05% (v/v) Tween 20, pH 7.4) at 37° C. for 1 h. The plates were then incubated with decreasing concentrations of hmAb 2G8_first approach (comparative purpose) (from 3.12 μg/ml to 0.003 μg/ml, each concentration was tested in triplicate) in blocking solution for 2 h at 37° C. At the same temperature and for the same time, 100 μL Goat anti-human-HRP diluted 1:1000 in blocking solution was poured in each well. After every single passage the plates were washed 5 times with PBS-Tween 20. To reveal the binding, 100 μl of 5 mg-ABTS tablet (Roche Diagnostics) dissolved in 12 ml of sodium citrate (0.05 M, pH 3) and supplemented with 1:1000 dilution hydrogen peroxide (Carlo Erba) was added and after 15, 30, 45 and 60 min the absorbance at 405 nm was measured. For the whole measuring time the plates were left in the dark. IC50 analysis of ELISA test was performed with Prism. The TEST was performed in triplicate.
The surnatants collected from the obtained humanised mAb were tested in ELISA test.
Four supernatants from hmAb according to the invention (H5/K3; H5/K1; H5/K7; H5/K5) were purified to confirm the data. 8 scalar dilutions, starting from 5 μg/ml, were tested.
The purified humanised mAb 2G8 H5/K1 was then tested in an ELISA assay using laminarin as a target.

B1: hmAb 2G8 H5/K1: humanised anti β-1,3 glucan mAb; heavy chain variable region H5 (SEQ ID NO: 22), light chain variable region K1 (SEQ ID NO: 15) (antibody, V domains shown)
VH: QVQLQQSGAELKKPGASVKISCKASGYTLSSYWLEWVRQRPGQGLEWIGEILPGSGSTNYNEKFKGRATFTADTSTNTAYMELSSLTSEDSAVYYCAREGWYFDVWGQGTTVTVSS
VL: DVVMTQSPLSLPVTLGQPASISCRSSQSLLYSNGNTHLNWFQQRPGQSPRRLIYLVSNRDSGVPDRFSGSGSGTDFTLKISRVEAEDVGVYYCVQGTHFPYTFGGGTKLEIK
modifications: VH-H5; VL-K1
[1]
  reduction in fungal adhesion to mammalian cells: 51.5%
C. auris; 50 μg/ml
  inhibition of yeast cell growth: over 60%
C. auris; 100 μg/ml
  inhibition of yeast cell growth: over 70%
C. auris; 250 μg/ml
  inhibition of yeast cell growth: over 70%
[2]; confocal microscopy, FITC signal
  binding on confocal images: recognize and bind β-1,3-glucans on the surface of C. auris
[2]; flow cytometry
  MFI fold of increase compared to control: 164 fold
[2]; flow cytometry, 1 hour
  events expressing the antigen (FITC positive): 97%
[3]; ELISA
  activity / affinity compared with murine 2G8: performs better than the original murine one
[3]; ELISA of supernatants of humanised mAbs
  Abs 405 nm: 3.48
[3]; purified supernatants, 8 scalar dilutions from 5 μg/ml
  performance in ELISA assay of purified hmAbs: best performer
